These results are taken from article PMC5566100.

The data set has as its target IGFIIR extracellular domain (domains 10-14; M6PR) (human, UniProt P11717 1510-2108). Put plainly: SPR. In general terms: In SPR one partner is held on a chip, and binding of the other changes the refractive index at the surface.

Sequence of IGFIIR extracellular domain (domains 10-14; M6PR) (P11717 1510-2108): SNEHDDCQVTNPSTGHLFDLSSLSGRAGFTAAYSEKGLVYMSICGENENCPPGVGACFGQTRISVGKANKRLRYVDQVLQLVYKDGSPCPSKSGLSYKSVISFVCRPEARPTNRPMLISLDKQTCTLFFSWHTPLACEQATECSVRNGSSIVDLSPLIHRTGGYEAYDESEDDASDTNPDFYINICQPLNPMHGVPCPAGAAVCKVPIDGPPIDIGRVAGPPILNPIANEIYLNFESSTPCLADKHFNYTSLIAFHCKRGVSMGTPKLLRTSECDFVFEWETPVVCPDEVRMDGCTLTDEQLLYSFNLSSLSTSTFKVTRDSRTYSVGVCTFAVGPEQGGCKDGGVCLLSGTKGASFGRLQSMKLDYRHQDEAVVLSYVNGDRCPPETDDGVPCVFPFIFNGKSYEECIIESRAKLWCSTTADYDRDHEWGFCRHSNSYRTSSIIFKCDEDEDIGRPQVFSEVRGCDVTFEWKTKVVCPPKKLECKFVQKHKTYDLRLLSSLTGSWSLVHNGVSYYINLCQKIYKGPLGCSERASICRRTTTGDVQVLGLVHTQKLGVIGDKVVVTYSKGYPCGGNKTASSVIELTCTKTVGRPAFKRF

For the molecule GGGCGCGUAGAUGACGAGCAGUCCUAACAUCGUUUAGGAC (structured_RNA) [RNA aptamer-20], binding was put at a Kd of 20 nM.
Molecule GGGCGCGTAGATGACGAGCAGTCCTAACATCGTTTAGGAC (structured_DNA) [DNA aptamer-20] registered a Kd of 35.5 nM.

As usually defined, the Kd is a measure of binding affinity in units of concentration. Low values mean a tighter complex, high ones a looser complex.
